From the supplement of paper PMC10126150
± gives the standard deviation of the averaged measurements.

Test system: ATP
Experiment: switch fluorescence ratio, 500 uM ATP over buffer (Cy3 cluster intensity, sum of 5 cycles each) (fold (ratio)); higher = stronger signal-on switching upon ATP binding; sequences stand for … in TCGTCGGCAGCGTCAGATGTGTATAAGAGACAGTTTTTTTTTTTTTTTTTTTTTTTTT…TC
Details: aptamer strand: ATP DNA aptamer (quencher-CACCTGGGGGAGTATTGCGGAGGAAGG + anchor), 100 nM annealed; ATP concentration: 500 uM
Method in brief: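 Imaging in selection buffer was followed by imaging after 15 min with 500 uM ATP at 22 °C, for Cy3-labelled switching-strand clusters annealed to 100 nM quencher-labelled ATP aptamer on a modified Illumina MiSeq flow-cell. Five of these buffer/ATP cycles ran, separated by NaOH stripping and re-annealing. The fluorescence ratio per cluster is summed target-cycle over summed buffer-cycle Cy3 intensity, averaged per switch-domain sequence; clusters outside 100-1000 RFU were removed.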
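Further: ATP exposure 15 min at 22 °C before imaging.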

Sequence	switch fluorescence ratio
AAAAAAAAAA	1 ± 0.022
AAAAAAAAAT	1.04 ± 0.03
AAAAAAAATT	0.993 ± 0.044
AAAAAACGGT	1.02 ± 0.025
AAAAAAGGGG	1.87 ± 1.5
AAAAAAGGTG	1.16 ± 0.22
AAAAAATGTG	0.99 ± 0.031
AAAAAATTGG	0.989 ± 0.035
AAAAACATGG	1.012 ± 0.0096
AAAAAGAAAT	1.04 ± 0.021
AAAAAGCAGG	1.13 ± 0.14
AAAAAGGAAT	0.982 ± 0.011
AAAAAGGGAG	1.01 ± 0.044
AAAAAGGGCA	0.995 ± 0.061
AAAAAGGGT	0.987 ± 0.032
AAAAAGGGTT	1 ± 0.025
AAAAAGTGAG	0.973 ± 0.042
AAAAATCCTG	0.98 ± 0.021
AAAAATCGT	1.01 ± 0.014
AAAAATGCCG	0.99 ± 0.019
AAAAATGCGC	1.03 ± 0.017
AAAAATGGGC	1.035 ± 0.005
AAAAATGTTC	0.9814 ± 4.7e-05
AAAAATTGTG	1.01 ± 0.046
AAAAATTGTT	0.986 ± 0.027

Sequence	switch fluorescence ratio
AAAACAGTTC	1.04 ± 0.048
AAAACAGTTT	0.987 ± 0.036
AAAACCCGA	1.01 ± 0.051
AAAACCGTCG	1.1 ± 0.023
AAAACCTTGG	1.05 ± 0.021
AAAACGCATG	1.05 ± 0.021
AAAACGGCGT	0.959 ± 0.01
AAAACGGGAA	1.02 ± 0.018
AAAACGTAAC	1.25 ± 0.1
AAAACGTTTA	1.01 ± 0.043
AAAACTAACG	1.1 ± 0.037
AAAACTATTT	0.9865 ± 0.0064
AAAACTGTCA	1.009 ± 0.0086
AAAACTTTAT	0.978 ± 0.013
AAAAGAAACC	1.13 ± 0.048
AAAAGAGATT	0.995 ± 0.013
AAAAGCAGGA	1.05 ± 0.052
AAAAGCCCTT	1.096 ± 0.0043
AAAAGCCGGT	1.02 ± 0.034
AAAAGCGGGT	0.997 ± 0.023
AAAAGCTTGC	1.13 ± 0.11
AAAAGGAGGC	1.01 ± 0.011
AAAAGGGAGA	1.01 ± 0.013
AAAAGGGAGG	1.03 ± 0.019
AAAAGGGGGA	1.02 ± 0.022

Sequence	switch fluorescence ratio
AAAAGTATTA	1.01 ± 0.025
AAAAGTGACC	1.01 ± 0.045
AAAAGTGACT	0.982 ± 0.049
AAAAGTGCCA	0.999 ± 0.027
AAAAGTTGTT	1.04 ± 0.019
AAAAGTTTGA	0.9656 ± 0.008
AAAATAATTA	0.981 ± 0.012
AAAATACGCT	1.16 ± 0.17
AAAATAGCCG	1.04 ± 0.054
AAAATAGGCC	1.02 ± 0.013
AAAATAGGCT	0.993 ± 0.029
AAAATATGTG	1.02 ± 0.062
AAAATATTTT	0.981 ± 0.027
AAAATCGCGT	0.998 ± 0.057
AAAATGAAGA	0.993 ± 0.026
AAAATGAAGT	1.03 ± 0.048
AAAATGATAT	0.99 ± 0.02
AAAATGCGAT	1.01 ± 0.045
AAAATGGAAG	0.9997 ± 0.0056
AAAATGGACA	1.03 ± 0.019
AAAATGGAGG	1.005 ± 0.0049
AAAATGGGGA	1.02 ± 0.033
AAAATGGTGG	1.02 ± 0.013
AAAATGTCGA	1 ± 0.024
AAAATTCCGG	1.011 ± 0.0011

Sequence	switch fluorescence ratio
AAAATTGACT	1.002 ± 0.003
AAAATTGGTT	1.009 ± 0.007
AAAATTTATT	0.989 ± 0.018
AAAATTTTAT	0.989 ± 0.026
AAAATTTTGA	0.992 ± 0.025
AAACAAAAGT	1.01 ± 0.037
AAACAAACCC	1.01 ± 0.042
AAACACGACT	1.07 ± 0.011
AAACACGAGC	1.067 ± 0.0061
AAACAGCGTG	1.01 ± 0.017
AAACAGTATA	1.03 ± 0.027
AAACAGTTGT	1.01 ± 0.055
AAACATAAAG	0.995 ± 0.027
AAACATAGCC	1.07 ± 0.011
AAACATAGGG	1.02 ± 0.038
AAACCAAACT	1.34 ± 0.31
AAACCACCCA	1.1 ± 0.019
AAACCCAGCT	0.988 ± 0.02
AAACCCTGGG	1.04 ± 0.029
AAACCGTT	1.04 ± 0.024
AAACCTTGCA	1.92 ± 0.15
AAACGAACAT	1.217 ± 0.011
AAACGACATT	1.13 ± 0.13
AAACGAGAAC	3.04 ± 2.8
AAACGAGGGA	0.997 ± 0.051

Sequence	switch fluorescence ratio
AAACGATTTC	1.01 ± 0.019
AAACGCATCT	1.1304 ± 0.0008
AAACGCCGAA	0.986 ± 0.062
AAACGCGACT	1.31 ± 0.2
AAACGGATGC	0.9573 ± 0.0092
AAACGGCACG	1.009 ± 0.0032
AAACGGCTCT	0.967 ± 0.031
AAACGGGAG	1.032 ± 0.0067
AAACGGGGGC	1 ± 0.085
AAACTACTAC	1.147 ± 0.0017
AAACTCGCGC	1.07 ± 0.012
AAACTCTTGT	1.01 ± 0.0033
AAACTCTTTT	0.978 ± 0.039
AAACTGGGCG	1.04 ± 0.062
AAACTGTTTG	0.996 ± 0.024
AAACTTGGGT	1.04 ± 0.024
AAACTTGTGA	1.02 ± 0.024
AAACTTTCTT	1.03 ± 0.021
AAACTTTTAA	1.01 ± 0.019
AAAGAAACAT	1.07 ± 0.08
AAAGAAACGG	1.1 ± 0.035
AAAGAAGATG	0.953 ± 0.045
AAAGAATTGG	0.975 ± 0.045
AAAGACAGTT	1.01 ± 0.049
AAAGACGAT	1.01 ± 0.017

Sequence	switch fluorescence ratio
AAAGACGGCA	1.53 ± 0.02
AAAGAGACAG	0.993 ± 0.0046
AAAGAGCAAT	1.79 ± 1.1
AAAGAGGAAG	0.987 ± 0.02
AAAGAGGGAT	0.986 ± 0.053
AAAGAGGGT	0.986 ± 0.018
AAAGAGTAGA	1.025 ± 0.0034
AAAGAGTGTG	0.988 ± 0.037
AAAGATAACT	1.024 ± 0.0098
AAAGATTAGT	0.9713 ± 0.0097
AAAGCGAGTC	1.021 ± 0.01
AAAGCGGACT	1.044 ± 0.0089
AAAGCGGGGA	1.04 ± 0.011
AAAGCGTGTT	1.02 ± 0.05
AAAGCTCGTG	1 ± 0.015
AAAGCTGCGT	0.9843 ± 0.0049
AAAGCTTCAT	1.46 ± 0.088
AAAGCTTTGA	0.983 ± 0.01
AAAGGAAGG	0.995 ± 0.013
AAAGGAGAGC	0.973 ± 0.087
AAAGGAGGGA	1.01 ± 0.035
AAAGGAGGGT	0.9994 ± 0.0062
AAAGGATATG	0.995 ± 0.018
AAAGGATGG	0.997 ± 0.036
AAAGGATGGT	0.953 ± 0.022

Sequence	switch fluorescence ratio
AAAGGCCGTG	1.0223 ± 0.00097
AAAGGGATAG	1.01 ± 0.038
AAAGGGCGGG	1.016 ± 0.0049
AAAGGGCTGG	0.984 ± 0.019
AAAGGGGAAA	1 ± 0.051
AAAGGGGCTA	0.988 ± 0.02
AAAGGGGGCT	0.9912 ± 0.0026
AAAGGGGGGG	1.01 ± 0.037
AAAGGGGTCA	1 ± 0.034
AAAGGGGTCT	1.01 ± 0.031
AAAGGGGTG	1.06 ± 0.016
AAAGGGGTGG	0.992 ± 0.043
AAAGGGTAGA	1.04 ± 0.019
AAAGGGTGCG	1.03 ± 0.017
AAAGGGTGTT	1.04 ± 0.013
AAAGGGTTTT	1.01 ± 0.022
AAAGGTAATA	1 ± 0.025
AAAGGTACGA	1.02 ± 0.016
AAAGGTCGAC	0.973 ± 0.021
AAAGGTGCAA	1.21 ± 0.2
AAAGGTGGGC	0.98 ± 0.039
AAAGGTGGTA	1.02 ± 0.066
AAAGGTGTAT	1.02 ± 0.014
AAAGGTTGGT	1.011 ± 0.0037
AAAGGTTTGC	1 ± 0.039

Sequence	switch fluorescence ratio
AAAGGTTTGG	0.976 ± 0.035
AAAGGTTTTC	0.9804 ± 0.0084
AAAGTACGCG	0.984 ± 0.046
AAAGTACTGG	1.19 ± 0.042
AAAGTCACAC	1.04 ± 0.022
AAAGTCATCT	0.995 ± 0.023
AAAGTCCATA	1.01 ± 0.026
AAAGTCCTAG	0.99 ± 0.016
AAAGTCGGGC	0.946 ± 0.059
AAAGTCTACA	1.03 ± 0.024
AAAGTGATGT	0.969 ± 0.02
AAAGTGCATC	0.992 ± 0.0037
AAAGTGGGAT	1.03 ± 0.019
AAAGTGGTTA	1.01 ± 0.025
AAAGTGTGC	1.07 ± 0.03
AAAGTTCAGT	0.98958 ± 0.00071
AAAGTTTCCA	0.993 ± 0.025
AAAGTTTCGT	1.01 ± 0.018
AAAGTTTTCG	0.977 ± 0.026
AAATAAAACT	1.1 ± 0.19
AAATAAACGA	0.98 ± 0.0072
AAATAAAGGG	0.987 ± 0.032
AAATAAATAA	0.944 ± 0.011
AAATAACCGA	1.08 ± 0.02
AAATAAGATT	1.02 ± 0.018
